Patent US20240101959A1, “USE OF IL-2R-BETA-GAMMA AGONIST PEPTIDES IN CELL MANUFACTURING” (MEDIKINE, INC., priority 2022, published 2024)
Positions of bridges follow the written chain, without caps; N, C: chain ends. No end group written: not given here.

T1: hu-IL-2Rβ subunit (human, UniProt P14784 27-240, limits assumed)
T1 construct: also called human interleukin-2 receptor subunit β; CD122
T1 sequence (looked up): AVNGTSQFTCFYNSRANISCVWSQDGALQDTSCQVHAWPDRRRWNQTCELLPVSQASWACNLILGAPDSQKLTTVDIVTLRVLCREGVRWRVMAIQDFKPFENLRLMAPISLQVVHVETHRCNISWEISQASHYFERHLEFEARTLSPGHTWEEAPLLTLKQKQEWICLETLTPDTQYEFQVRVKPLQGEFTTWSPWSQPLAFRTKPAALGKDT


Target: T1, hu-IL-2Rβ subunit
Test: phage ELISA competition assay

IC50, < 100 µM:
GGYYDCLIAEVGELCDMPGQ [SEQ ID NO 507]
WQIFDCYLAQVGELCDLQDT [SEQ ID NO 511]
LESLDCFFARIGDLCEIWDV [SEQ ID NO 510]
YRWWYPCDIAQVGELCDLDYLL [SEQ ID NO 496]
WGRNRSWYPCWMAQLGELCDLE [SEQ ID NO 113]
VVCYACDIAHVGELCDLTCR [SEQ ID NO 508]
AHFYDCFWAKAGELCDLWPS [SEQ ID NO 532]
HGILDCYFAKVGELCELFDW [SEQ ID NO 537]
QITDSGWYPCWVAKVGELCDMD [SEQ ID NO 495]
KGSSWFPCYFAQVGDLCDLY [SEQ ID NO 487]
AGFRGRWWPCEYAQVGELCDLE [SEQ ID NO 484]
ERRPDTWFPCWRALVGELCDLE [SEQ ID NO 112]
WYPCWMAKVGELCDME [SEQ ID NO 494]
KWVHDCFLAKVGDVCDLFVV [SEQ ID NO 529]
WAFYDCRNAQVGDFCDLWEF [SEQ ID NO 518]
RYVPDCLKAQVGDLCDFFAW [SEQ ID NO 492]
SMDQDCYFAQVGELCVLFNQ [SEQ ID NO 519]
SWLSDLQDCYIAQVGDLCQI [SEQ ID NO 523]
HRGWVGWYPCEYALPGQLCDLE [SEQ ID NO 501]
WGKLVRDCFLAKVGDLCDLFLW [SEQ ID NO 534]
LPFQDCYIAQVGELCDLPGT [SEQ ID NO 505]
HWVRDCFLAKVGELCDLFLW [SEQ ID NO 536]
RAWWWPCELAQVGELCDLEPSS [SEQ ID NO 490]
RGVYFPCWLAKVGDLCDSDEF [SEQ ID NO 489]
WYPCWLAQVGELCDRE [SEQ ID NO 488]
RYVHDCFIAQVGDLCDLFLH [SEQ ID NO 528]
GGYYDCLIAEVGELCDIYGR [SEQ ID NO 520]
QFVKDCFLAQVGDLCELFLW [SEQ ID NO 538]
WLPCWIAKIGDLCDLD [SEQ ID NO 498]
WWPCYLAQIGELCDLV [SEQ ID NO 493]
YDCYIAQVGELCDI [SEQ ID NO 522]
RWMFDCLFARVGELCDIRPW [SEQ ID NO 506]
QDRRSPWYPCWMAKLGELCDLA [SEQ ID NO 114]
SRVWHPCWLARVGELCDLEVSD [SEQ ID NO 499]
QWFHNCFLARVGDTCDLFLW [SEQ ID NO 526]
VTVQDCYFARVGDLCDLFSP [SEQ ID NO 516]
WLPCWLAKLGELCDLEWLPCW [SEQ ID NO 111]
WFPCWLAKVGELCDRDDLAGPS [SEQ ID NO 485]
THVHDCFLAKVGDLCDLFIV [SEQ ID NO 535]
TRRWYPCYLAKLGELCDLFEGGTR [SEQ ID NO 115]
WWPCEWARIGELCDLE [SEQ ID NO 486]
RLLRDCFLAKVGDLCELFVW [SEQ ID NO 525]
WEWYDCLMAQVGELCDFEGN [SEQ ID NO 517]
GRYPDCYIAHVGELCEFYDG (not fully specified (bridges); cysteine pairing not given here) [SEQ ID NO 512]
RVRRHSWWPCEIAVVGELCDLE (not fully specified (bridges); cysteine pairing not given here) [SEQ ID NO 503]
SNWHDCLFAQVGELCDLPGS (not fully specified (bridges); cysteine pairing not given here) [SEQ ID NO 521]
TPWYDCYIANVGDLCDFASA [SEQ ID NO 509]
ETEQMSWYPCWVAQLWELCDLD (disulfide 10-19 (inferred)) [SEQ ID NO 110]
RSLVDCFLVKVGDLCDFFNW [SEQ ID NO 530]
WYPCWLAKVGELCDQE [SEQ ID NO 491]
LVYYDCYMAQVGELCDLPSL [SEQ ID NO 514]
ELLVDCFKVKVGELCDLFFG [SEQ ID NO 527]
DKAGPNFYPCWLAHVGELCDQA [SEQ ID NO 483]
DGWWPCWIAQVGELCDLEDPV (not fully specified (bridges); cysteine pairing not given here) [SEQ ID NO 504]
RLASDWWDCYIAKVGELCDF (not fully specified (bridges); cysteine pairing not given here) [SEQ ID NO 524]
WEHEFTWYPCWIAQVGELCDMD [SEQ ID NO 500]
RYLYDCFLALVGDLCVKFHQ [SEQ ID NO 531]
VSRYDCYIAKVGELCDFFEF [SEQ ID NO 515]
FGDDFCRFIPLFEMCTTDVE [SEQ ID NO 513]
